Laboratory results taken from US20230233676A1, “Use of Approved Anti-CD38 Antibody Drug Product in Combination with Pomalidomide and Dexamethasone to Treat Multiple Myeloma” (Janssen Biotech, Inc., priority 2022, published 2023).
Like-named read-outs stand apart in the source and are kept apart here. Marks after values point to notes of the source that are not given here.

Legend:
[1] = molecular target: T1, CD38 on red blood cells (RBCs) (Homo sapiens, UniProt P28907); test: Interference with serological testing (Indirect Antiglobulin Test)
T1 construct: endogenous in cells; host or cells: red blood cells (patient / reagent RBCs)
Excerpt: Since the Kell blood group system is also sensitive to DTT treatment, supply K-negative units after ruling out or identifying alloantibodies using DTT-treated RBCs.

[2] = Daratumumab pharmacokinetics in patients with light chain (AL) amyloidosis; format: in vivo, human
[3] = human, in vivo
[4] = test system: patients with relapsed or refractory multiple myeloma; test: COLUMBA randomized non-inferiority study, DARZALEX FASPRO monotherapy versus intravenous daratumumab;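 further: randomized arms stratified by body weight, myeloma type and count of earlier treatment lines, enrolled patients having a median of 4 previous lines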
Description: The major efficacy outcome measures were ORR by the IMWG response criteria and maximum Ctrough at pre-dose Cycle 3 Day 1 [see Clinical Pharmacology (12.3)]. Randomization was stratified by body weight, myeloma type, and number of prior lines of therapy.
Patients had received a median of 4 prior lines of therapy. […] Forty-nine percent of patients were refractory both a PI and an immunomodulatory agent. Eighty-two percent of patients were refractory to their last line of prior systemic therapy.

monkeys = test: Hyaluronidase given subcutaneously to monkeys (systemic exposure, reproductive tissues); format: in vivo
Description: No carcinogenicity, genotoxicity, or fertility studies were conducted for recombinant human hyaluronidase. […] As hyaluronidase is a recombinant form of the endogenous human hyaluronidase, no carcinogenicity, mutagenesis, or effects on fertility are expected.

[5] = test system: pregnant mice and offspring; test: Hyaluronidase developmental toxicity in mice; format: in vivo
Excerpt: There were no effects on pre- and post-natal development through sexual maturity in offspring of mice treated daily from implantation through lactation with 990,000 U/kg hyaluronidase subcutaneously, which is 134 times higher than the human doses.

[6] = All Grades, worsening from baseline
[7] = monkeys given 22,000 U/kg/week subcutaneously for 39 weeks

Question: For “Daratumumab: immunoglobulin G1 kappa (IgG1κ) human monoclonal antibody that binds to the CD38 antigen; heavy chain SEQ ID NO: 12, light chain SEQ ID NO: 13”, which “Indirect Antiglobulin Test (Indirect Coombs test)” value [1] is on record?
Answer: Its value is “positive”.

Question: And the “persistence of positive indirect antiglobulin test after the last administration” value [1]?
Answer: Its value is “up to 6 months”.

Question: And the “estimated mean volume of distribution” value ([2]; CV 28%)?
Answer: The value was 10.8 L.

Question: What about the “estimated mean linear clearance” value ([2]; CV 42%) of the same molecule?
Answer: The value was 210 mL/day.

Question: What about the “estimated mean elimination half-life associated with linear clearance” value ([2]; CV 74%) of the same molecule?
Answer: The value was 28 days.

Question: What about the “estimated mean elimination half-life associated with linear clearance” value [3] of the same molecule?
Answer: The value was 20 days.

Question: What about the “estimated mean linear clearance” value [3] of the same molecule?
Answer: Its value is 119 mL/day.

Question: What about the “estimated mean volume of distribution for the central compartment” value [3] of the same molecule?
Answer: Its value is 5.2 L.

Question: And the “estimated mean volume of distribution, peripheral compartment” value [3]?
Answer: The value was 3.8 L.

Question: And the “pharmacokinetics in geriatric patients compared to younger adult patients” value [3]?
Answer: Its value is “No clinically meaningful differences”.

Question: With “Intravenous Daratumumab: daratumumab 16 mg/kg administered intravenously” as the molecule, how does the “Observed mean ± SD max Ctrough after 8th dose” value [3] read?
Answer: The value was 522 ± 226^a,b μg/mL.

Question: And the Back pain ([4]; All Grades)?
Answer: The Back pain was 12%.

Question: And the Chills ([4]; All Grades)?
Answer: Its Chills is 12%.

Question: And the Cough ([4]; All Grades)?
Answer: The Cough was 14%.

Question: And the Diarrhea ([4]; All Grades)?
Answer: The Diarrhea was 11%.

Question: And the Dyspnea ([4]; All Grades)?
Answer: Its Dyspnea is 11%.

Question: What about the Fatigue ([4]; All Grades) of the same molecule?
Answer: Its Fatigue is 16%.

Question: What about the Infusion reactions ([4]; All Grades) of the same molecule?
Answer: The Infusion reactions was 34%.

Question: And the Nausea ([4]; All Grades)?
Answer: The Nausea was 11%.

Question: And the Pneumonia ([4]; All Grades)?
Answer: Its Pneumonia is 10%.

Question: And the Pyrexia ([4]; All Grades)?
Answer: The Pyrexia was 13%.

Question: What about the Decreased hemoglobin [4, 6] of the same molecule?
Answer: The Decreased hemoglobin was 39%.

Question: What about the Decreased leukocytes [4, 6] of the same molecule?
Answer: Its Decreased leukocytes is 57%.

Question: And the Decreased lymphocytes [4, 6]?
Answer: The Decreased lymphocytes was 56%.

Question: And the Decreased neutrophils [4, 6]?
Answer: The Decreased neutrophils was 43%.

Question: And the Decreased platelets [4, 6]?
Answer: The Decreased platelets was 45%.

Question: What about the Back pain ([4]; Grade ≥3) of the same molecule?
Answer: The Back pain was 3^# %.

Question: And the Chills ([4]; Grade ≥3)?
Answer: The Chills was 1^# %.

Question: What about the Cough ([4]; Grade ≥3) of the same molecule?
Answer: The Cough was 0%.

Question: And the Diarrhea ([4]; Grade ≥3)?
Answer: The Diarrhea was 0.4^# %.

Question: What about the Dyspnea ([4]; Grade ≥3) of the same molecule?
Answer: Its Dyspnea is 1^# %.

Question: What about the Fatigue ([4]; Grade ≥3) of the same molecule?
Answer: Its Fatigue is 2^# %.

Question: And the Infusion reactions ([4]; Grade ≥3)?
Answer: The Infusion reactions was 5^# %.

Question: What about the Nausea ([4]; Grade ≥3) of the same molecule?
Answer: Its Nausea is 0.4^# %.

Question: And the Pneumonia ([4]; Grade ≥3)?
Answer: The Pneumonia was 6^@ %.

Question: And the Pyrexia ([4]; Grade ≥3)?
Answer: The Pyrexia was 1^# %.

Question: What about the Decreased hemoglobin ([4]; Grades 3-4) of the same molecule?
Answer: Its Decreased hemoglobin is 16%.

Question: What about the Decreased leukocytes ([4]; Grades 3-4) of the same molecule?
Answer: The Decreased leukocytes was 14%.

Question: What about the Decreased lymphocytes ([4]; Grades 3-4) of the same molecule?
Answer: Its Decreased lymphocytes is 36%.

Question: What about the Decreased neutrophils ([4]; Grades 3-4) of the same molecule?
Answer: The Decreased neutrophils was 11%.

Question: And the Decreased platelets ([4]; Grades 3-4)?
Answer: The Decreased platelets was 14%.

Question: And the CR or better ([4]; in vivo)?
Answer: The CR or better was “(2.7%)”.

Question: What about the Median progression-free survival ([4]; in vivo) of the same molecule?
Answer: Its Median progression-free survival is 6.1 months.

Question: What about the “Partial response (PR)” value ([4]; in vivo) of the same molecule?
Answer: The value was “(20%)”.

Question: What about the “Very good partial response (VGPR)” value ([4]; in vivo) of the same molecule?
Answer: Its value is “(14%)”.

Question: What about the “Overall response (sCR + CR + VGPR + PR)” value ([4]; intent-to-treat population) of the same molecule?
Answer: Its value is “(37%)”.

B1: hyaluronidase: recombinant hyaluronidase rHuPH20 having the amino acid sequence of SEQ ID NO: 22 (protein, listed as Homo sapiens)
chain: LNFRAPPVIPNVPFLWAWNAPSEFCLGKFDEPLDMSLFSFIGSPRINATGQGVTIFYVDRLGYYPYIDSITGVTVNGGIPQKISLQDHLDKAKKDITFYMPVDNLGMAVIDWEEWRPTWARNWKPKDVYKNRSIELVQQQNVQLSLTEATEKAKQEFEKAGKDFLVETIKLGKLLRPNHLWGYYLFPDCYNHHYKKPGYNGSCFNVEIKRNDDLSWLWNESTALYPSIYLNTQQSPVAATLYVRNRVREAIRVSKIPDAKSPLPVFAYTRIVFTDQVLKFLSQDELVYTFGETVALGASGIVIWGTLSIMRSMKSCLLLDNYMETILNPYIINVTLAAKMCSQVLCQEQGVCIRKNWNSSDYLHLNPDNFAIQLEKGGKFTVRGKPTLEDLEQFSEKFYCSCYSTLSCKEKADVKDTDAVDVCIADGVCIDAFLKPPMETEEPQIFY
Question: Which “systemic exposure of hyaluronidase” value (monkeys; monkeys given 22,000 U/kg subcutaneously) does the source give for B1 here?
Answer: Its value is “No systemic exposure”.

Question: And the “effects on reproductive tissues and function” value (monkeys; [7])?
Answer: Its value is “no effects”.

Question: What about the “systemic exposure of hyaluronidase” value (monkeys; [7]) of the same molecule?
Answer: Its value is “no systemic exposure”.

Question: And the “effects on post-natal development through sexual maturity in offspring” value ([5]; mice treated daily during lactation with 990,000 U/kg subcutaneously)?
Answer: The value was “no effects”.

Question: And the “effects on pre- and post-natal development through sexual maturity in offspring” value ([5]; mice treated daily from implantation through lactation with 990,000 U/kg subcutaneously)?
Answer: The value was “no effects”.

Question: What about the “effects on embryo-fetal development” value ([5]; pregnant mice given 330,000 U/kg subcutaneously daily during organogenesis) of the same molecule?
Answer: The value was “no effects”.
